Changes are numbered by the printed parent chain. In names and notes the source's numbering stands.
B1: ^402GCFNF^406ISAQT: Caspase-9 homodimerization domain mutant (SEQ ID NOS 95 and 96) (Casp-10) (protein, UniProt P55211 1-416, looked up, variant G402I C403S F404A N405Q F406T)
chain: MDEADRRLLRRCRLRLVEELQVDQLWDALLSRELFRPHMIEDIQRAGSGSRRDQARQLIIDLETRGSQALPLFISCLEDTGQDMLASFLRTNRQAAKLSKPTLENLTPVVLRPEIRKPEVLRPETPRPVDIGSGGFGDVGALESLRGNADLAYILSMEPCGHCLIINNVNFCRESGLRTRTGSNIDCEKLRRRFSSLHFMVEVKGDLTAKKMVLALLELAQQDHGALDCCVVVILSHGCQASHLQFPGAVYGTDGCPVSVEKIVNIFNGTSCPSLGGKPKLFFIQACGGEQKDHGFEVASTSPEDESPGSNPEPDATPFQEGLRTFDQLDAISSLPTPSDIFVSYSTFPGFVSWRDPKSGSWYVETLDDIFEQWAHSEDLQSLLLRVANAVSVKGIYKQMPISAQTLRKKLFFKTS
B2: N405Q-T3175 (protein, UniProt P55211 1-416, looked up, variant N405Q T317S)
chain: B1 chain with T317S, I402G, S403C, A404F, T406F
B3: N405Qco: Caspase-9 mutant (protein, UniProt P55211 1-416, looked up, variant N405Q)
chain: B1 chain with I402G, S403C, A404F, T406F
modifications: codon-optimized
notes: Caspase-9 mutant
B4: N405Q (protein)
chain: GFGDVGALESLRGNADLAYILSMEPCGHCLIINNVNFCRESGLRTRTGSNIDCEKLRRRFSSLHFMVEVKGDLTAKKMVLALLELAQQDHGALDCCVVVILSHGCQASHLQFPGAVYGTDGCPVSVEKIVNIFNGTSCPSLGGKPKLFFIQACGGEQKDHGFEVASTSPEDESPGSNPEPDATPFQEGLRTFDQLDAISSLPTPSDIFVSYSTFPGFVSWRDPKSGSWYVETLDDIFEQWAHSEDLQSLLLRVANAVSVKGIYKQMPGCFQFLRKKLFFKTS
B5: D330S (protein)
chain: B4 chain with D196S, Q271N
B6: S307A (protein)
chain: B4 chain with S173A, Q271N
B7: D330A-S144D (protein)
chain: B4 chain with S10D, D196A, Q271N
B8: F406W (protein)
chain: B4 chain with Q271N, F272W
B9: S195A (protein)
chain: B4 chain with S61A, Q271N
B10: F406Y (protein)
chain: B4 chain with Q271N, F272Y
B11: D330A-N405Q (protein)
chain: B4 chain with D196A
B12: D330E (protein)
chain: B4 chain with D196E, Q271N
B13: D330A (protein)
chain: B4 chain with D196A, Q271N
B14: T317A (protein)
chain: B4 chain with T183A, Q271N
B15: D330A-S144A (protein)
chain: B4 chain with S10A, D196A, Q271N
B16: L329E (protein)
chain: B4 chain with L195E, Q271N
B17: D330V (protein)
chain: B4 chain with D196V, Q271N
B18: D330N (protein)
chain: B4 chain with D196N, Q271N
B19: F404T (protein)
chain: B4 chain with F270T, Q271N
B20: D330A-S196A (protein)
chain: B4 chain with S62A, D196A, Q271N
B21: D330G (protein)
chain: B4 chain with D196G, Q271N
B22: N405Q-S196D (protein)
chain: B4 chain with S62D
B23: F406A (protein)
chain: B4 chain with Q271N, F272A
B24: N405Q-S144A (protein)
chain: B4 chain with S10A
B25: F404Y (protein)
chain: B4 chain with F270Y, Q271N
B26: S196A (protein)
chain: B4 chain with S62A, Q271N
B27: S183A (protein)
chain: B4 chain with S49A, Q271N
B28: N405Q-S144D (protein)
chain: B4 chain with S10D
B29: D330A-S183A (protein)
chain: B4 chain with S49A, D196A, Q271N
B30: N405Q-S144Aco (protein, UniProt P55211 1-416, looked up, variant N405Q S144A)
chain: B1 chain with S144A, I402G, S403C, A404F, T406F
modifications: codon optimized
B31: N405Q-T317Sco (protein, UniProt P55211 1-416, looked up, variant N405Q T317S)
chain: B1 chain with T317S, I402G, S403C, A404F, T406F

System: chimeric Caspase-9 polypeptide
Sequence (as listed by the source, change not shown): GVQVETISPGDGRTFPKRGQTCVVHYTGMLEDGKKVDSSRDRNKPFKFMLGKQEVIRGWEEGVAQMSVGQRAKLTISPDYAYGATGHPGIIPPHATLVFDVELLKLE
Experiment: Caspase mutant classes and basal activity (Table 3)
Assay type: cell-based, human
Settings: class heading of Table 3

Row | Molecule | Basal Activity
1 | B1 | Decreased
2 | B2 | Decreased
3 | B3 | Decreased
4 | B4 | Decreased
5 | B5 | Decreased
6 | B6 | Decreased
7 | B7 | Decreased
8 | B8 | Decreased
9 | B9 | Decreased
10 | B10 | Decreased
11 | B11 | Decreased
12 | B12 | Decreased
13 | B13 | Decreased
14 | B14 | Decreased
15 | B15 | Decreased
16 | B16 | Decreased
17 | B17 | Decreased
18 | B18 | Decreased
19 | B19 | Decreased
20 | B20 | Decreased
21 | B21 | Decreased
22 | B22 | Decreased
23 | B23 | Decreased
24 | B24 | Decreased
25 | B25 | Decreased
26 | B26 | Decreased
27 | B27 | Decreased
28 | B28 | Decreased
29 | B29 | Decreased

Same assay, conditions: class heading of Table 3; ligand IC50

Row | Molecule | IC50
30 | B1 | higher IC50
31 | B2 | higher IC50
32 | B3 | higher IC50
33 | B4 | higher IC50
34 | B5 | higher IC50
35 | B6 | much higher
36 | B7 | higher IC50
37 | B8 | higher IC50
38 | B9 | higher IC50
39 | B10 | higher IC50
40 | B11 | higher IC50
41 | B12 | higher IC50
42 | B13 | higher IC50
43 | B14 | higher IC50
44 | B15 | higher IC50
45 | B16 | higher IC50
46 | B17 | higher IC50
47 | B18 | higher IC50
48 | B19 | much higher
49 | B20 | higher IC50
50 | B21 | higher IC50
51 | B22 | higher IC50
52 | B23 | higher IC50
53 | B24 | higher IC50
54 | B25 | higher IC50
55 | B26 | higher IC50
56 | B27 | higher IC50
57 | B28 | higher IC50
58 | B29 | higher IC50

Same assay, conditions: class heading of Table 3; marked *, predicted

Row | Molecule | Basal Activity
59 | B30 | Decreased
60 | B31 | Decreased

Reference: patent US20160263155A1, “T CELL RECEPTORS DIRECTED AGAINST THE PREFERENTIALLY EXPRESSED ANTIGEN OF MELANOMA AND USES THEREOF” (LEIDEN UNIVERSITY MEDICAL CENTER, priority 2015, published 2016)
